From patent publication US20210363245A1 come the findings set out here.

Like-named read-outs stand apart in the source and are kept apart here.

Test in all cases: cell-based or functional assay
The target in test [1] is CD20 (human) (UniProt P11836).
For test [2], the target named is CD19 (UniProt P15391).
Test [3] has as its target CD20 (human) (UniProt P11836). The source holds these as a separate data set.
Test [4] addresses CD19 (UniProt P15391). This is another data set of the same source.
The target in test [5] is CD20 (human) (UniProt P11836). This is another data set of the same source.
The target of test [6] is CD19 (UniProt P15391). This is another data set of the same source.
For test [7], the target named is CD20 (human) (UniProt P11836). The source holds these as a separate data set.
Test [8] addresses CD19 (UniProt P15391). The source holds these as a separate data set.

Chain of UniProt P15391 (P15391 20-556 limits assumed): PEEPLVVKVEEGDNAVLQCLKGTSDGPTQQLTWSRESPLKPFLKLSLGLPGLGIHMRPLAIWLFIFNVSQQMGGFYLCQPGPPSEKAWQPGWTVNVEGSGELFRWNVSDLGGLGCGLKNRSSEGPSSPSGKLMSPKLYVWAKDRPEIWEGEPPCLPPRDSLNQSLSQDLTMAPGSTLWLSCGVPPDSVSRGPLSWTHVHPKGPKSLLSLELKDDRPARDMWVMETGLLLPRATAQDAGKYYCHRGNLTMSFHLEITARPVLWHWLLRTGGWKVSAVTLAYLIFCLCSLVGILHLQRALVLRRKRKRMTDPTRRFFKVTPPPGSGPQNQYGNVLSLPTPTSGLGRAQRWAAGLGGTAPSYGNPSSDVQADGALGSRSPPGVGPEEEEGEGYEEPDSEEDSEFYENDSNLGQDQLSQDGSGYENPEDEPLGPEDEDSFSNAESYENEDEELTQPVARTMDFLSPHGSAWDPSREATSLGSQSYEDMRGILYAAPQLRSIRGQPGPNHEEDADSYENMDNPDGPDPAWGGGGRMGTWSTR
Chain of UniProt P11836 (P11836 whole entry): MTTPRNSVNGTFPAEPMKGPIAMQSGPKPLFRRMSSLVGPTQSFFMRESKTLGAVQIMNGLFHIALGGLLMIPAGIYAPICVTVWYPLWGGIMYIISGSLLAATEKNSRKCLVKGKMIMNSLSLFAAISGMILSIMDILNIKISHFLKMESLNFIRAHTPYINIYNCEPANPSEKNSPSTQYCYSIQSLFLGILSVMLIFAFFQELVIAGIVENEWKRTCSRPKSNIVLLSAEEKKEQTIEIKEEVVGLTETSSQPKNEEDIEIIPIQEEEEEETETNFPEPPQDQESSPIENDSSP

In test [1], C2B8-CD828Z gave an IFNγ release (ELISA), overnight co-culture with CD20-K562 of 56700 pg/mL; an IFNγ release (ELISA), overnight co-culture with Nalm6 of 1290 pg/mL; an IFNγ release (ELISA), overnight co-culture with ST486 of 14300 pg/mL; an IFNγ release (ELISA), overnight co-culture with Toledo of 7770 pg/mL. Moreover, in test [1], the IL-2 release (ELISA), overnight co-culture with CD20-K562 was 4620 pg/mL; the IL-2 release (ELISA), overnight co-culture with Nalm6 was less than 16 pg/mL; the IL-2 release (ELISA), overnight co-culture with ST486 amounted to 215 pg/mL; the IL-2 release (ELISA), overnight co-culture with Toledo is 104 pg/mL. In test [2], this substance gave an IFNγ release (ELISA), overnight co-culture with CD19-K562 of 1050 pg/mL and an IL-2 release (ELISA), overnight co-culture with CD19-K562 of less than 16 pg/mL. Besides, in test [3], the IFNγ release (ELISA), overnight co-culture with CD20-K562 came out at 36500 pg/mL; the IFNγ release (ELISA), overnight co-culture with Nalm6 was 800 pg/mL; the IFNγ release (ELISA), overnight co-culture with ST486 was found to be 9070 pg/mL; the IFNγ release (ELISA), overnight co-culture with Toledo stood at 6590 pg/mL. For the same substance, the IFNγ release (ELISA), overnight co-culture with CD19-K562 in test [4] came out at 55 pg/mL.
As to Hu19-CD828Z, in test [1], the IFNγ release (ELISA), overnight co-culture with CD20-K562 came out at 43 pg/mL and the IL-2 release (ELISA), overnight co-culture with CD20-K562 was less than 16 pg/mL. Besides, in test [2], the IFNγ release (ELISA), overnight co-culture with CD19-K562 amounted to 21200 pg/mL; the IFNγ release (ELISA), overnight co-culture with Nalm6 worked out at 6940 pg/mL; the IFNγ release (ELISA), overnight co-culture with ST486 is 745 pg/mL; the IFNγ release (ELISA), overnight co-culture with SU-DHL-4 stood at 2280 pg/mL. In test [2], this substance came in with an IFNγ release (ELISA), overnight co-culture with Toledo of 4570 pg/mL; an IL-2 release (ELISA), overnight co-culture with CD19-K562 of 616 pg/mL; an IL-2 release (ELISA), overnight co-culture with Nalm6 of 111 pg/mL; an IL-2 release (ELISA), overnight co-culture with ST486 of less than 16 pg/mL. In test [2], this substance came in with an IL-2 release (ELISA), overnight co-culture with SU-DHL-4 of less than 16 pg/mL and an IL-2 release (ELISA), overnight co-culture with Toledo of 55 pg/mL. The substance also showed an IFNγ release (ELISA), overnight co-culture with CD20-K562 in test [3] of 21 pg/mL. In test [4], this substance displayed an IFNγ release (ELISA), overnight co-culture with CD19-K562 of 31900 pg/mL; an IFNγ release (ELISA), overnight co-culture with Nalm6 of 5700 pg/mL; an IFNγ release (ELISA), overnight co-culture with ST486 of 3610 pg/mL; an IFNγ release (ELISA), overnight co-culture with SU-DHL-4 of 5190 pg/mL. The same substance returned an IFNγ release (ELISA), overnight co-culture with Toledo in test [4] of 6470 pg/mL. This substance also had an IFNγ release (ELISA), overnight co-culture with CD20-K562 in test [5] of 118 pg/mL. In test [6], this substance returned an IFNγ release (ELISA), overnight co-culture with CD19-K562 of 13900 pg/mL. Moreover, the IFNγ release (ELISA), overnight co-culture with CD20-K562 in test [7] amounted to 808 pg/mL. For the same substance, in test [8], the IFNγ release (ELISA), overnight co-culture with CD19-K562 is 13300 pg/mL; the IFNγ release (ELISA), overnight co-culture with Nalm6 is 6520 pg/mL; the IFNγ release (ELISA), overnight co-culture with ST486 was 1430 pg/mL.
In test [1], Human IgG (antibody) had an IFNγ release by Hu1928-2.1.2BB T cells with ST486 CD19-/- cells, human IgG at 0 ug/ml of 6490 pg/mL; an IFNγ release by Hu1928-2.1.2BB T cells with ST486 CD19-/- cells, human IgG at 6.2 ug/ml of 5840 pg/mL; an IFNγ release by Hu1928-2.1.2BB T cells with ST486 CD19-/- cells, human IgG at 12.5 ug/ml of 5590 pg/mL; an IFNγ release by Hu1928-2.1.2BB T cells with ST486 CD19-/- cells, human IgG at 25 ug/ml of 5470 pg/mL. Further, in test [1], the IFNγ release by Hu1928-2.1.2BB T cells with ST486 CD19-/- cells, human IgG at 50 ug/ml amounted to 6510 pg/mL and the IFNγ release by Hu1928-2.1.2BB T cells with ST486 CD19-/- cells, human IgG at 100 ug/ml worked out at 5920 pg/mL.
